Laboratory results: a protein production outcome set (Wang et al. 2014)

Experiment: label from the status in PepcDB records

Sequence | protein production
MSAHPLAQLETFKHTSKQWNQLREAANMSNRMEHILQAMPSGVVILNGDGIVTDANPVAVELLEQSLCGARWIDVIHTAFAPQDDDGHEVSLRNGRRVKLAITPLTPEPGQLIVLTDLTETRLLQKNLSHLQRLSALGKMVATLAHQVRTPLSAALLYAANLASPKLSDSAKVKFQQKLVDRLNELERQVNDMLLMAKGRQDELGELINLNDVIENVVANCEPIVAKHGAELTVTNASNGLMLANVNALSSAVNNLVMNSLEAGATQIQLVANEIDDQLHLNVVDNGKGLDAKMQQRVLEPFFTTKAQGTGLGLAVVQSVVRNHGGQLQLNCMPNKGCTVSLTFPQAKSATVLPLEKSHV | failed
MSAIDCIITAAGLSSRMGQWKMMLPWEQGTILDTSIKNALQFCSRIILVTGYRGNELHERYANQSNITIIHNPDYAQGLLTSVKAAVPAVQTEHCFLTHGDMPTLTIDIFRKIWSLRNDGAILPLHNGIPGHPILVSKPCLMQAIQRPNVTNMRQALLMGDHYSVEIENAEIILDIDTPDDFITAKERYTEILEHHHHHH | not failed
MSAKIVTVFNQKGGCGKTTVSMHIAGTLGVRGSKTLLVDMDEQGTATRWAAQAPEEKPFPASVIGLAPSGGAMHREVRKFIADYDYIVVDCPPAVHSPASSSALLISDIAIIPVVPSPPDLWAAVAAKALAQQAQVTNETLRVRVLANMVQRRVSLAKQAIEILGDDGDIPLMESMIGSRSAFRECQAIGATVHGVPGAREAINEVDIMVNEVLQLLREGQA | failed
MSAKSPTPQPPYEIPSFRKRRLITTGLLTITTLWFIYFYVDLVSATTLLTLPVIIAAPLIMVYIWYHEFTYYARVRKNNKLYKALYGHLQNHQHPENTDTPPM | failed
MSALDCPAGTVLFRAGQDCPGFLRLDEGSIRVTLTAANGREVVLYRVRPGDVCLQTFACLTEGRSYSAEGVAETRVRGHLMSHADFRTALARDEAFRTEVMQAVARRFADFEHLVEDVALTGFDTRLARVLLRLAKGDTVAATHEALAAETASGRAFVSRRLAEFARQGLVELARGRVTLCDRSGLERIAAEER | not failed
MSALFLMKTLGLFIATAIAEIVGCYLPYLWLKEGHSVWLLIPAAVSLALFAYLLTLHPAESGRVYAAYGGIYVLTAIVWLRIVDKSPLSNFDLIGTAFVLTGMGILVYGWR | failed
MSALLGILGVVLDARFGEPQGWHPLVAFGRLADRLERRFNRSRLAGEADPGVGWRSHGVTAWVLAVLPLTLLAWALAELPYLGWLVQALALYAALGLRSLGEHAEPVALALRAGDLDEARRRVGYLVSRDTRELDQAGVARAATESVLENGSDAVYAALFWFAVAGAPGVVLYRLSNTLDAMWGYRNARFERFGWAAAKIDDILNYLPARLVALTYALLGDTRQALRCWREQAPQWDSPNAGPVMAAGAGALGVFLGGAAIYHGELHQRPLLGSGPQPQGRDIYRALALVRQGVLLWLLVLAGLWAMGWLHA | failed
MSALPSYTQNGQTITFAFAQPLQLTIVTPEIIRVFINRGEQGESYAIEGHKIQATDFTIESAGDHYIIRTSALTIHLDSERHLDTFDKDGNALITDYRGERIHLKGVDKVHERLVEAEGHSVTKAPTKSDQGYYEIIKSLAPDEYLYGLGDKTGYLNKRGFAYDNWNVDNPAPQLEILPNIYKSIPVMLGLKNGHPYGIFFDNTYQSHLDMGKESNHYYFYSAVQGNLDYYIIGGTTLKDIVTNYTYLTGRTPLPQKWTLGYQQSRWGYSASQEEVQAIADNLAKYDLPCDAIHFDVDYMDGYRVFTWDKDKYQGNPKKFITKLNQQGLKVIPIIDPGVKQDSDYHIYAEGLKKGYFVKSADGDVYINKVWPGNAAFPDFGRPEVRQWWANNGKFLTDLGVAGIWIDMNEPATFEGPIPDDVVFNDQDTPSTHKKMHNVYGHNMAKATYAGLKEQTGNRPFVITRAAYAGTQKYSTVWTGDNRSMWPHIQMMIPQLCNLGLSGFSFTGTDIGGFASDTTSELLTRWIEGAIFSPLLRNHAALGTRQQEPWAFGEPTLNIYRKYLKLRYRLIPYLYDLFAKETKTGLPIMRPVVLNYDQDPRVRDLNDEYMVGDDILVAPVVQKSQFKRLVYLPAGNWVDFWNGAEYAGNQDIVVDTPLDKLPLFVKQNTILPWGPAVSHISDEPLKAMTFRVFGTQGTYQHYQDNGRDFKYQSGEWNNYTITVDHNKVNVQLTHHGYQPVYQQITVELSDHVVKLTYDNDSSCYRE | failed
MSANPDRFLGRAEVYAAARPDYPPALGNELARRGLLRGQVADLGAGTGLFTRLLLQRGAQVIAVEPNPEMREQLLRALAAEVTRGQLRVQSGTAEATGLPGSSVDLLTAAQAAHWFDPAPTRREFQRVLRPGGQVLFVWNDWREADGPFNEAYGAVVAHFSPEEGRVRTRVPRDELAQWFSGAPEELSFDHPLTFTRERLHALAGSVSYLPAPGSERFPELLARLDQAFDRQARQDTVELTYRTFAFLGRV | failed
MSAPAPRSPAGGHEARATARALTLLAIGAGFGFLWLARDLLVPTALGVTLALSVHPVVAALQRRRVSRTVASVAGTLLAVAVLVGIGYVLWGRIAAFADELPGYEGRLREAAAGIRRHAAHLQAQSEQLVQAPRRPGEVKVQEGVPWGSLLVGTAQGALTFAGQATVVVFVLYFTLAEGPRFRTKLLAWADRRPRGRARVLAALEELHRDVEQYMLNRVALNAALGVVTWAVYALYGLEHAAIWGITTALLHFIPYVGPALGLFLPAAMALLQYGTAKDVALVTAIYLVLVNVQGNVVDPLFLGKQLRLSPLVVFLGSLFWFWLWGPVGLFLAVPLLSTVRIVCRHLPRYRVVASLLAE | failed
MSAPRLPVTVLTGFLGAGKTTLLSKLLENNKQRRLAILVNEFGEVSIDGGLLRDGENQGVEIHDLANGLVAYDDDADFLPTMLALWQRRQQIDHVLIETSGLALPSAVMAQLQSEALAPYFVLDATLAVVDTPLLLAGHFAPAGDGGKTDAVAALFDQQLGHADIVVLNKIDALSADQLLAAEEAVRKQAPSIRFIELAYEAKLDTRLTLGLHLHEASPAAHRHYGPVASMPGLAMRPLANQTLLDGHSHGGQAAHSHGLATHKHFHEQDPGWQSFMIRSKEPQCADKLAAALQAIAREEPLLRIKGFAACADSPGRLLAQGVRSRIELSRDDTLAAPRQAQLVFIGYHPSRPRVVALLRDITGAHWSLEHHHHHH | failed
MSAPSSPSTSQTRPPARSLWRRRRTWFLVGGGGLGAAAVVVLLGIWWRSPTPEAAIALRQSDFAELRWQSRFAMDAATRQRARFLYALAIAPDQPQAALQALQGLERSYPLLGPYILKLRAQVQTQLGQDPRETWRQLLNTYPESPVQAEAVLALGQWDLAPATIQRWPRYPASNELARQLAKRQPAEAKRWLLQIAQFGRYRFDIDAVLSELQALPNLTARDRQQIADAYWQRDDYATAADLYARSPQTDETLYRQARSLDLTSQPEVARTLYQQLLQRFPQSPERERALVHLVRLDPANRDRYLQLLERQFALSLPEALGLAAATEPRYRPILLQRFPASPEAAALRWQQAWQQAEAGNLPQAIALVTQTRDRSPTIEAAAQAGFWLGRWQTQLGQTDAAQAAWQWVLQQHPDSYYAWRSAAALGWPVGDFSQVQAQQPAWPQAQSPQALPAGSAVLKELYALGQTEDAWRLWQQEGPSRDPSPSDRFISALLEASISRYDRAASLLKGLPIDSPLRQRSDFVSTLYPVVFKEEITAATQRDRLNPLLVLGLIRQESRFLPGATSVVGARGLMQLMPETAAEVAAELGLQQYDLGDPQTNIQLGSRYLRNVLDYWREDSLFAIASYNAGPGNVENWVRRFGRRDRDRWLEQIPFPETRDYVEKVLSNYWNYLRQSDRSLEQRLQQLDR | failed
MSARMFVLCCIWFIVAFLWITITSALDKEWMIDGRGINNVCDVLMYLEEDDTRDVGVIMTLPLFFPFLWFALWRKKRGWFMYATALAIFGYWLWQFFLRYQFCL | failed
MSARSGFWYACSPPSAPGWCRFFDLLTCCTDEDGLMRDVALCCRSIAIDVRGLLRIDTQEGSAEKLRPSQTDVFNALASFLVAVGSQPYCNLASHPRHLDALAIPDTRYPIPDTQPMTFREPVDLVALNAASRDTLIEHLGIVFTEAGDDWLRATMPVDARTRQPYGLLHGGASVVLAETLGSSAGNLCVDMTTRMCVGLEINANHLRAATQGLVTGTARAVHVGRSTHVWDITIENPVGKRVCVSRLTLAVVARGNG | failed
MSASICCRCNEKIWPRAVCSLGKTYHPHHFTCKECGLVVDPKLFFAVDDDVVCSECYLDKHAARCSACRTPILERGVAAAERKWHEKCFRCVSCSKSLVSASFFEVNGYLFCKAHFRELFSSRCAGCEKPIDRRAVVALSTKWHAKCFKCHHCRKRISAREFWIENGQPICAACQTVVPSPRNLSAQ | failed
MSASIMTWPVLSVVTFLPVLGAALVYLARGEDEAARRNARWISLWTTLITFAVSLLLVWHFDPANPGFQFVEKAPWLGNTITYHMGLDGISLPLVILTTAIMPFCIIASWRSVTVRVREYMIAFLILETLMIGTFSALDLVLFYLFFEGGLIPMFLIIGIWGGPRRVYASFKFFLYTLLGSVLMLLAIMALYWNAGTTDIPTLMRTSVPSGLQTWAWLAFFASFAVKMPMWPVHTWLPDAHVEAPTAGSVVLAAILLKMGGYGFLRFSLPMFPDASAYFAPLIYTLSVIAIIYTSLVALMQEDIKKLIAYSSVAHMGFVTMGIFAGTTQGVAGAVFQMVSHGIVSGALFLCVGVVYDRMHTREIAAYGGLVNRMPLYALVFMVFTMANVGLPGTSGFVGEFLTLLGTFRVNIPTATLATTGVILSAGYALWLYRKVVFGAMTKPALASIKDLTWREGLMMAPLLVLTILFGFYPKPVLDMSAASVQQLVNNYAAAVTAVKAAALP | failed
MSASPQAPTPPDRSSPSVSSNLGAEGAGGRRLCGSVVLSAGKILSVDKTLWQALGLSAESLSGLPFLSFLEDPSREVLAARLRLAGPPWDLRTALRVDGRAIPVVLRGDGAADRTTDTPLQVILITLAPQEGEVEPVSQSALFDHIPLGVMLSDGLGRIAYANPAFLAEDIAAVRALLGATPQALATGYLHEGLARTLWEDLLCGRVWRNDVDLPTADGQRTHSRLTIIPLRRDDGAVDRLMTVIEPRSPATDSQAWQQVNHDTLTGLPNRVLFQDRLLTALASARRRNDQLAVLFVDLDHFKTVNDSLGHSFGDQLLQQVATRLSQCLRDSDTLARMGGDEFTIALTGDGHQRDYAMIANRILETLRRPFTLEGGHEVLIGSSIGITLFPNDAEDVDTLLRNADTAMYRAKASGRNAFQFFTEEMNREIQSHLDLENALRRAVRAMDLTIHYQPVVDSATLAVVSAEALVRWPLADKGFIPPSRFIPVAEELGLIDEIGGWVLWNACTQAKVWQAQGAKAFRVSVNVSWRQLRNPDFALRVREALEGTGLGAAFLELEITEGMVLRDPQGIAPALMALSEMGVALAIDNFGSGHSSIKCLRQFPFSILKLDRSCVADVLTSHEDAVLVETAAIMARRLGLTVVAEGVETHAQLEFLREHYCDLIQGYLFGRPLPPEDFARML | failed
MSASSLFNLPLIRLRSLALSSSFSSFRFAHRPLSSISPRKLPNFRAFSGTAMTDTKDAGMDAVQRRLMFEDECILVDETDRVVGHDSKYNCHLMENIEAKNLLHRAFSVFLFNSKYELLLQQRSNTKVTFPLVWTNTCCSHPLYRESELIQDNALGVRNAAQRKLLDELGIVAEDVPVDEFTPLGRMLYKAPSDGKWGEHELDYLLFIVRDVKVQPNPDEVAEIKYVSREELKELVKKADAGEEGLKLSPWFRLVVDNFLMKWWDHVEKGTLVEAIDMKTIHKL | failed
